Reference: paper doi:10.1101/2024.10.29.620886

Key:
[1] = target: CR57 canonical diabody with a five amino acid linker 'GGGGS' between the VH and VL domains (human); experiment: SEC
[2] = target: Imdevimab diabody (human); experiment: SEC

Substance | stoichiometry N [1] | stoichiometry N [2]
CR57 canonical diabody with a five amino acid linker 'GGGGS' between the VH and VL domains | 2 | 
Imdevimab diabody |  | 2
